{
  "source": "paper doi:10.1101/411793",
  "tested_on": "DosR (phosphorylated) (Mycobacterium tuberculosis)",
  "test": "EMSA",
  "data": [
    {"substance": "hspX promoter probe", "values": [
      {"measurement": "binding signal (fold inhibition of binding vs DMSO)", "value": 22}
    ]}
  ]
}
